In the DeepSol protein solubility set:

Test: soluble on expression in E. coli; label from the status in PepcDB or PDB records

Sequence | soluble on expression in E. coli
MSLNKPKIVILGAGYGGLMTVTRLTKYVGPNDADITLVNKHNYHYETTWMHEASAGTLHHDRCRYQIKDVINQSRVNFVQDTVKAIKIDEKKVVLANGELQYDYLVIGLGAVPETFGIKGLKEYAFPIANINTSRLLREHIELQFATYNTEAEKRPDRLTIVVGGAGFTGIEFLGELAARVPELCKEYDVDRSLVRIICVEAAPTVLPGFDPELVDYAVHYLEENGVEFKIGTAVQECTPEGVRVGKKDEEPEQIKSQTVVWAAGVRGHPIVEEAGFENMRGRVKVNPDLRAPGHDNVFILGDSSLFMNEDTERPYPPTAQIAMQQGITVAKNLGRLIKGGELEEFKPDIKGTVASLGEHNAVGVVYGRKLKGTPASFMKKVIDNRSLFMIGGLGLTLKKGKFKEGHHHHHH | soluble
MMLHAQHMPGQPGTPSLVFLHGFSGDCHEWQPVGEQFHGCSRLYIDLPGHGGSAAIPVDGFADVIRLLRATLISYNILKFWLVGYSLGGRVAMMAACQGIPGLCGLVVEGGHPGLQNEQARAERRLSDGRWAERFRHEPLTEVFHDWYQQPVFASLTAQQRQALTALRSQNNGETLAAMLEATSLAVQPDLREALNALAFPFYYLCGERDSKFRALAQEVAATCHVIRNAGHNAHRENPAGVVDSLAQILRL | not soluble
MSLKKITGDDVLIPLETPESMHKEYIQNYLNLTRNTGNLMLFAGDQKIEHLNEDFYGKDISKDDADPEHLFKIAENSKIGGFAVQFGLLSRYGRDHKDINYIVKLNSKTNLVDTNQKDPLSRALLDINDILEFKKNSGINIVGVGYTIYLGSEYESEMLSEASKIIYEAHKGGLVVILWIYPRGKAVKDEKDSELISGATGVAACLGADFVKVNYPKSENPAESFKEAVMAAGRTKVVCAGGSSTDIESFLKQLYEQIHISGASGNATGRNIHQKSLSDAVSMCNAIYAITIDGKTVSEALNIYNERKSEGHHHHHH | soluble
RHMASIEKVANCIRCLAADIVQGGKSGHPGTPMGMAPMSAVLWTEVMKYNSQDPDWVDRDRFVMSNGHGCALQYALLHMAGYNLTMDDLKGFRQDGSRTPGHPERFVTPGVEVTTGPLGQGIANAVGLAIAEAHLAATFNRPGYNIVDHYTYVYCGDGCLMEGVCQEALSLAGHLALEKLIVIYDSNYISIDGSTSLSFTEQCHQKYVAMGFHVIEVKNGDTDYEGLRKALAEAKATKGKPKMIVQTTTIGFGSSKQGTEKVHGAPLGEEDIANIKAKFGRDPQKKYDVDDDVRAVFRMHIDKCSAEQKAWEELLAKYTAAFPAEGAAFVAQMRGELPSGWEAKLPTNSSAIATRKASENCLAVLFPAIPALMGGSADLTPSNLTRPASANLVDFSSSSKEGRYIRFGVREHAMCAILNGLDAHDGIIPFGGTFLNFIGYALGAVRLAAISHHRVIYVATHDSIGVGEDGPTHQPVELVAALRAMPNLQVIRPSDQTETSGAWAVALSSIHTPTVLCLSRQNTEPQSGSSIEGVRHGAYSVVDVPDLQLVIVASGSEVSLAVDAAKALSGELRVRVVSMPCQELFDAQPDTYRQAVLPAGVPVVSVEAYVSFGWEKYSHAHVGMSGFGASAPAGVLYKKFGITVEEVVRTGRELAKRFPDGTAPLKNSSFSKM | soluble
RTDNLGLAPYGRVDLSGGSFGTFRRSVKLGSGRIGRHWAVDARLSKIGSDGYVDRGSVDLKSYFAQVGYFGSNTALRFITFGGKEVTGIAWNGLSKEDEAKYGRRYNSAGLMYVDAQGVPHYYHNTDNYEQRHYHAIMTHSFSPSVILNLTAHYTAGYGYTDEYRTGRKLKEYALQPYVENSVTVKKTDLIRQKYLDNDFGGLIGSLNWHTGAWDLQFGASGNIYKGDHFGRITYIKKYNQPLAPDFEYYRNRADKREGAAFAKANWQITPELNMYADLQYRTIGYTINGITDEYDEVQGSMQHIDLDKTFRFLNPKAGLTYSFDDAHTAYASVAVAHREPNRTNYTEAGIGQYPTPERLIDYELGYRYASPLLSAGVGLYYMQYKDQLVLDGRLSDVGQMLTSNVPDSYRMGLELTLGWQILPRLLRWDASFTMSRNKIDRYVQYTSVYDADYNWLELKEETLESTDIAYSPNVIAGSMLTLSHAGFEMAWTSRFVSKQYLDNTQRSDRMLSSYWVNDLRLGYVLPVHFVKRVALGVQLNNLFNLMYASNAYIYDAGYVQASGELSAYADLRYYPQAGFNALGSLTIDF | not soluble
MGSDKIHHHHHHAPLTFDETAFREDVKTLASDAFGGRAPLSDGEQKTLDYLTHAFKSMGLKGAFNGEYLQAVPMAKITADQSMVLKVGELSFTSGEDFTARTQRVVPKVELSGSDMVFVGYGINAPEYGWNDYAGIDVRGKTVVLLVNDPGFATQDPKVFKGNAMTYYGRWTYKYEEAARQGAEAVFIVHEDAPAAYGWGVVKNSNTNTKFTLVDGNNNQSQVGVMGWLQYAAAKQILAASGQDIEALKAAAKAPGFKAVPLTVQADLTLSNHIERAESHNVAAILPGNKNADEAVVMHAHWDHLGQIEEEGKTIILNGAVDNATGVAGVLALARHYAALPEAEKPARSMIFSAFTAEETGLIGAQYFAENPPLPTSKLVAFLNIDGMNVGEGVDYILRYGEGVSELETMLSDAAKAQNRQVKADPRPQNGLMFRSDHFALAQQGVPGLLFMSLGDTDPDYIAHKYHKGADDYSPDWQLGGVKQDLKLIEQILSRLANGSEWPKWLEESDFKARRAKDGR | not soluble
MKQPGEELQETLTELDDRAVVDYLIKNPEFFIRNARAVEAIRVPHPVRGTVSLVEWHMARARNHIHVLEENMALLMEQAIANEGLFYRLLYLQRSLTAASSLDDMLMRFHRWARDLGLAGASLRLFPDRWRLGAPSNHTHLALSRQSFEPLRIQRLGQEQHYLGPLNGPELLVVLPEAKAVGSVAMSMLGSDADLGVVLFTSRDASHYQQGQGTQLLHEIALMLPELLERWIERV | not soluble
MALAQQLRSESDFEQLPDDVAVSANIADIEEKRGFTSHFVFVIEVKTKGGSKYLIYRRYRQFYALQSKLEERFGPESKNSPFTCSLPTLPAKVYMGAKQEIAETRIPALNAYMKNLLSLPVCVLMDPDVRIFFYQSAYDAEQVPQALRRLRPRTRKIKGVSPQGAIMDRMEAPRAEALFDFTGNSKLELSFKAGDVIFLLSKINKDWLEGTSQGATGIFPGSFVKILKDFPEDEDTTNWLRCYFYEDTGKTIKDIAVEEDLSSTPLFKDLLALMRREFQREDIALSYQDAEGDLVRLLSDEDVGLMVKQARGLPSQKRLFPWKLHVTQKDNYSVYNTVP | soluble
MGSDKIHHHHHHMGQGTDSMSKRGRVYIIGAGPGDPGLMTVKGTKCLAEADVVIYDHLINPGILHHARETARLVYAGKEGGKHTLSQEEINARLVSEAQQGHVVARLKGGDPFIFGRGGEEAEVLAREGIPFEIVPGVTSAIAVASYAGIPLTHRRHTATLAFVTGHEDPLKGQSEIDWKALAGIGTLVFLMGVRNLSRIAAGLIAQGKKPETPAALIRWGTTANQETLVGTLENIADLAEAAGFAPPAILVVGGVVGLRKELNWFETRPLFGKGIVITRPESQAESLAALLEDAGARVISFPTIQIVAPESWEGLDSAIRRLEDYAWLIFTSANGVRFFLERLYVTGKDVRDLKGIRLCTIGPATAAALENRGLRVDLVPETYLSEGVVAAFERVAISGQRILLPRAEKARDVIPEGLTRQGAVVDVVSAYRTVNSGRDRSELVELIAQRRVDVLTFTSPSTVTNFLEIMGPDFLPLPAGIRVACIGPVTAAAAEKAGLPVDILQEIYTIPGLVESLKVFLAKDKPH | not soluble
MVESTTTIYDVARVAGVSMATVSRVVNGNANVKEKTRQKVLEAIAELDYRPNAVARGLASKRTTTVGVILPTITSTYFAAITRGVDDIASMYKYNMILANSDNDVEKEEKVLETFLSKQVDGIVYMGSSLDEKIRTSLKNSRTPVVLVGTIDGDKEIPSVNIDYHLAAYQSTKKLIDSGNKKIAYIMGSLKDVENTERMVGYQEALLEANIEFDENLVFEGNYSYEQGKALAERLLERGATSAVVSHDTVAVGLLSAMMDKGVKVPEDFEIISGANSPITQYTYPTLTSVNQPLYDLGAVAMRLLTKLMLKEDVEQNQLVLDHEIFSRRSTK | soluble
MQHHKVAIIGAGAAGIGMAITLKDFGITDVIILEKGTVGHSFKHWPKSTRTITPSFTSNGFGMPDMNAISMDTSPAFTFNEEHISGETYAEYLQVVANHYELNIFENTVVTNISADDAYYTIATTTETYHADYIFVATGDYNFPKKPFKYGIHYSEIEDFDNFNKGQYVVIGGNESGFDAAYQLAKNGSDIALYTSTTGLNDPDADPSVRLSPYTRQRLGNVIKQGARIEMNVHYTVKDIDFNNGQYHISFDSGQSVHTPHEPILATGFDATKNPIVQQLFVTTNQDIKLTTHDESTRYPNIFMIGATVENDNAKLCYIYKFRARFAVLAHLLTQREGLPAKQEVIENYQKNQMYLDDYSCCEVSCTCLEHHHHHH | soluble
MRRLPPWMLGGASTGEAAARNGSQPEAPKTKAEKRPKRVQKTKEKDLNLKSDEPKRVPRKIREEAKRSPEVIQSVTVPEDDDLTVDDLLSFANEYVQRDEEGTRKERERSLSVSETTLVLDETNMTTSSQGGTKDSTAEDMLQLLMGPFYKKR | soluble
MCIGVPGQIRAIDGNQAKVDVCGIQRDVDLTLVGSCDENGQPRLGQWVLVHVGFAMSVINEAEARDTLDALQNMFDVEPDVGALLYGEER | not soluble
SAADLGQIPDVDIDSDGVFKYVLIRVHLAEPSGDPAKECKEIVRGYKWAEYHADIYDKVSGELQRNGYDCECLGGGRISHQSQDRKIHVYGYSMGYGRAQHSVSTEKIKAKYPDYEVTWADDGY | soluble
MDNKNFQSKTGFNLENTYLTLPNIFFSEQNPKGSKNPKLIKFNTSLAEELGLNEEVLNSDFGLNIFAGNETFPGIVPIAQAYAGHQFGHFTMLGDGRALLLGEHVTKDCKRYDVQLKGSGRTIYSRGGDGKAALAPMLREYIISEGMHGLGIPTTRSLAVVSTGEEVLRERFEQGAILTRIASSHIRVGTFAYAAQWGTLEDLKSLADYTIKRHFPNIADNENKYILFLEEVINRQAELIVKWQSVGFIHGVMNTDNMVISGETIDYGPCAFMDTYDTNTVFSSIDYAGRYAYGNQPNMALWNLARFSEALLPLLNPNLDEAVNIAKKSISNFSKLYKKYWFNKMRTKLGLFTEKENDELLIEGLLSTMQKYEADFTNTFVSLTLNKFEDEKVFSSDEFKTWYALWQNRLKEENRPQEEVRNLMMNNNPYIIPRNHLVEEALKNAEKGDFTFMDNLLEALKNPYSYSKDLEKYTKLPEKSDTPYVTYCGTLEHHHHHH | not soluble
MRYDVSSNSLYVFCSIVLFSDLRFRIGGKYMAERHMFLKKDPSKENSIIVSNIPAFVGEGVVLAIIDQFASFEVEESFVQRSNTADNSLSQGQLTMSITFDKPEAVIQTLALCQDVGPFTITDFLEDPEFPSVLKDSTTLYRKLFPSEEQIQEMADTYVERYDTEQTEARKEAKRKYSEPDEDGWITVTKAKKAAKSVKLKKEDVPLIGGLNNKKKKVDLAYYTFQIKKNRQEKAQELLKKFEEDRKRITQLKQARNFKPI | not soluble
MGSDKIHHHHHHMKIDEFNKALDRGEISPLYYFHGDEPHLMERAVKRLMDSAVPPDFRDFNLDVFYGNECKGDEVASVAQTLPMFADRRMVLVKRAGDLSAAALEILASCVADPPPTTCLVFMGEKVDQRKKFFQEMKKKGELVECKRPYENQLGAFIREEAKGLGKRVEPAAAEMLVYLVGNNLGELSTQLEKVALYVGQRETISVEDVRGIVSDTKVESVFDLTNALGERNVVKALRSLATILRDGEAPLMLLAMIARHFRQLWRVRDLMAQKVPQQDISRLAGINPYFIKGVMAQARNFSASELKKVFEGLYATDLALKGGGAKRPTLTLEKLVMDVCGMGSR | not soluble
